The test has as its target M2 peptide (extracellular 23-amino-acid M2 peptide) (influenza A virus). Kind of test: ELISA, peptide coated, antibody 10 µg/ml.

The values below come from patent US20050170334A1.

For the substance mouse anti-M2 antibody 14C2, the ELISA (OD450) was 1.97 OD450.
